Test results published in paper PMC11208146, “Molecular basis for transposase activation by a dedicated AAA+ ATPase” (Nature, 2024).

Biological target: IstA transposase, wild type, full length (IS5376, Geobacillus stearothermophilus) (Geobacillus stearothermophilus)
Experiment: cryo-EM structure; IstA pre-incubated with strand-transfer-complex DNA (3.3:1), then IstB E167Q (5:1 to IstA), 37 °C; 20 mM HEPES pH 7.5, 150 mM NaCl, 5 mM MgCl2, 1 mM ATP, 1 mM DTT; 3.6 Å

- stoichiometry N: 4
Substance: IstA transposase, wild type, full length (IS5376, Geobacillus stearothermophilus) (enzyme)
